From patent US20230338526A1 (BIO THERA SOLUTIONS, published 2023)

What was measured:
[1] = target: T1, CD20 (human, UniProt P11836 1-297); assay: cell-based or functional assay
T1 sequence (looked up): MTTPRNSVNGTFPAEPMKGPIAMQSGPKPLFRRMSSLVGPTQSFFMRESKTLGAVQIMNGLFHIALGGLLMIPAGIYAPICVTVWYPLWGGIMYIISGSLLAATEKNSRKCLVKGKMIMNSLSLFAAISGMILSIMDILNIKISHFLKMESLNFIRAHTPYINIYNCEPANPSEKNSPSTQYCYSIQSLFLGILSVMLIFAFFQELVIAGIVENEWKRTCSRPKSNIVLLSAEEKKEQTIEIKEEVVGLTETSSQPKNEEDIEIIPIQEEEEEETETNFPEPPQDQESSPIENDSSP

[2] = target: T1, CD20; assay: cell-based or functional assay; remark: listed apart in the source
[3] = target: T1, CD20; assay: binding to CD20+ cells; method and cell line not stated

B1: Rituximab (antibody, V domains shown)
VH: QVQLQQPGAELVKPGASVKMSCKASGYTFTSYNMHWVKQTPGRGLEWIGAIYPGNGDTSYNQKFKGKATLTADKSSSTAYMQLSSLTSEDSAVYYCARSTYYGGDWYFNVWGAGTTVTVSA
VL: QIVLSQSPAILSASPGEKVTMTCRASSSVSYIHWFQQKPGSSPKPWIYATSNLASGVPVRFSGSGSGTSYSLTISRVEAEDAATYYCQQWTSNPPTFGGGTKLEIK
[1]
  Percentage of whole blood B-cell depletion in vitro, 10 ng/ml: 17.8%
  Percentage of whole blood B-cell depletion in vitro, 50 ng/ml: 36%
[2]
  ADCC, PBMC method: 0.0496 nM
  ADCC, Reporter gene assay method: 0.019 nM
[3]
  Binding to CD 20^+ cells: 10.2 nM
